{
  "source": "patent US20140294977A1",
  "about": "“Radiation-Sterilized Biodegradable Drug Delivery Composition” (DURECT CORPORATION, priority 2011, published 2014)",
  "experiment": "Gamma-radiation stability of hGH:protamine powders and SAIB/BB/PLA suspensions by RPLC",
  "assay_type": "physicochemical",
  "conditions": "after gamma irradiation at 15 kGy",
  "protocol": "Aliquots of 3 mL each of the bulk hGH solution in buffer from BresaGen were transferred into 5 mL type-Hypak BD glass syringes and lyophilized using the lyophilization cycle provided in Table 1 (optimized for hGH) to fit the steps provided with an FTS lyophilizer, Dura Stop, MP Stoppering Tray Dryer, Stone Ridge, N.Y.\n100 mg of BresaGen hGH powder was placed in a 15 mL wide-mouth glass jar. 5.5 mL of 25 mM NH4HCO3 (pH ˜7.5) solution was added and the compound was stirred for 30 min at room temperature, 400 rpm until it became clear. Then 1.02 mL of protamine sulfate solution (conc. 10 mg/mL) was slowly added to form a white precipitate. The resulting suspension was stirred for 30 min to complete the complexation reaction. 0.19 mL of 290 mM sucrose solution was then added while stirring at 400 rpm. When the solution was clear, 15.2 μL of 10% polysorbate 20 solution was added. In powders with methonine formulation, 1 wt %-35 wt % of methionine relative to the total protein weight was added to the complexed suspension. […]\nStability of the above formulations was determined using RPLC analysis. […]",
  "data": [
    {"substance": "control hGH powder: lyophilized human growth hormone powder (BresaGen) without complex, used as control", "values": [
      {"measurement": "purity of hGH / impurity peaks in RPLC spectra (FIG. 1)", "value": "showed an impurity peak around 8.15 min"}
    ]}
  ]
}
